Two substances from patent US20220127309A1 can be followed below.

Test [1] has as its target Ectodomain of RSV F (1-513) - DScav mutations - Foldon SSM (Respiratory Syncytial virus). The test is described as follows: ELISA, printed as affinity (FIG. 1C). (In general: ELISA stands for enzyme-linked immunosorbent assay.)
Test [2] concerns the target Ectodomain of RSV F (1-520) - DScav mutations - HIV GP160-based SSM (Respiratory Syncytial virus). The test is described as follows: ELISA, printed as affinity (FIG. 1C).
Test [3] addresses Ectodomain of RSV F (1-520) - HIV GP160-based SSM (Respiratory Syncytial virus). The test is described as follows: ELISA, printed as affinity (FIG. 1A).
The target of test [4] is Ectodomain of RSV F (1-513) - DScav mutations - Foldon SSM (Respiratory Syncytial virus). The test is described as follows: ELISA, printed as affinity (FIG. 1B).
Test [5] has as its target Ectodomain of RSV F (1-520) - DScav mutations - HIV GP160-based SSM (Respiratory Syncytial virus). The test can be described thus: ELISA, printed as affinity (FIG. 1B).

“Broadly cross-neutralizing, prefusion specific monoclonal antibody MPE8”: the equilibrium dissociation constant (Kd) in test [1] was 10.8 nM; in test [2], 7.6 nM.

As for “Prefusion specific monoclonal antibody D25”, the Kd was found to be 23.4 nM in test [3], 1.3 nM in test [4] and 1.2 nM in test [5].

In general, Kd refers to the free concentration of one partner at which half of the binding sites on the other are occupied at equilibrium, for simple one-to-one binding.
